For assay [1], the system named is visceral epididymal adipose tissue. Put plainly: Forskolin-stimulated lipolysis in adipose tissue explants in the presence of Atglistatin. Format: cell-based, mice. The following applies: 5 μM Atglistatin, 10 μM forskolin. As to the method:
Male C57BL/6 wild-type mice and aged matched Vegfb^−/− mice (12 weeks old) were subjected to 14 hours of overnight fasting. Animals were sacrificed using carbon dioxide anaesthetics and visceral epididymal adipose tissue was surgically removed, washed in DPBS, and incubated in prewarmed (37° C.) DMEM (Dulbecco's modified Eagle's medium (DMEM, 1 g/l glucose; GIBCO, Life Technologies, Carlsbad, Calif.) until use. For measurements of forskolin-stimulated lipolysis, the adipose tissue pieces (20±5 mg) were pre-incubated in 200 μl DMEM containing 2% BSA (FA-free; Sigma-Aldrich) or 10 μM forskolin (Sigma-Aldrich) in the presence or absence of or 5 μM Atglistatin (Sigma-Aldrich) in 96-well plates at 37° C., 5% CO2, and 95% humidified atmosphere for 60 min. For measurements of basal lipolysis no pre-incubation was performed. Adipose tissue explants were transferred into 200 μl of identical fresh medium and incubated for further 60 min (=period of measurement) at 37° C., 5% CO2, and 95% humidified atmosphere. FA content was determined from the incubation media using a NEFA kit (Wako chemicals). The total amount of protein was measured by transferring the tissue explants into 1 ml extraction solution (Chloroform/methanol (2:1, v/v), 1% glacial acetic acid) and incubated for 60 min at 37° C. under vigorous shaking. […] Protein content of the adipose tissue explant lysates was determined from the lysed solution using BCA reagent kit (Pierce) and BSA as standard. The rate of lipolysis rate was calculated as the amount of NEFAs/mg protein/hrs. […]
Mice carrying the lox-containing gene construct allowing for Cre recombinase-mediated tissue specific ablation of Vegfb (Vegfb Flox+ mice) were generated by Taconic Artemis (Cologne, Germany). […] FA content was determined from the incubation media using a NEFA kit (Wako chemicals). The total amount of protein was measured by transferring the tissue explants into 1 ml extraction solution (Chloroform/methanol (2:1, v/v), 1% glacial acetic acid) and incubated for 60 min at 37° C. under vigorous shaking. […]

Assay [2] addresses T1, VEGF-B (Mus musculus, UniProt P49766).
T1 construct: endogenous in cells; host or cells: C57BL/6 male mice (in vivo)
T1 sequence (P49766 22-207): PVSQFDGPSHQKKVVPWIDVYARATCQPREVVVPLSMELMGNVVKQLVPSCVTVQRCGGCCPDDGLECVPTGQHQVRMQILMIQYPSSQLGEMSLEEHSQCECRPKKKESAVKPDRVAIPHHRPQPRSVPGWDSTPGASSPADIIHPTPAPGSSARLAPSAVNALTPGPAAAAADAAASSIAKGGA
Description: Plasma NEFAs, glycerol, triglycerides and insulin in fasting-induced lipolysis. The format is in vivo, C57BL/6 mice. As to the method:
Male C57BL/6 mice and aged matched Vegfb^+/− and Vegfb^−/− (12 weeks old) mice were subjected to 14 hours of overnight fasting. Animals were sacrificed using carbon dioxide anaesthetics and total blood was removed by cardiac puncture. Blood was centrifuged at 14000 rpm, 4° C. for 10 minutes, serum was separated and frozen in aliquots at −80° C. Commercially available kits were used for enzymatic determination of non-esterified fatty acids (NEFAs; Wako Chemicals), glycerol (Abcam), triglycerides (TAGs; Sigma-Aldrich) and insulin (Mercodia). Statistical analyses were performed using one-way ANOVA.
(§1) C57BL/6 male mice purchased from Janvier labs and injected with 3 consecutive injections intraperitoneally (i.p.) twice weekly with 400 μg of anti-VEGF-B antibody (2H10) or an isotype matched control antibody. At the age of 12-16 weeks animals were subjected to 14 hours of overnight fasting. Body weight and blood glucose levels were determined as described above.
C57BL/6 male mice were treated with an anti-VEGF-B antibody (2H10) or an isotype matched control antibody as described above. At the age of 12-16 weeks animals were subjected to 14 hours of overnight fasting, sacrificed using carbon dioxide anaesthetics and total blood removed by cardiac puncture and processed as described above. Enzymatic determination of NEFAs (Wako Chemicals) and glycerol (Abcam), triglycerides (Sigma-Aldrich) and insulin (Mercodia) was performed as previously described.

In assay [3] the target is T1, VEGF-B. Put plainly: Body weight and blood glucose in chow-fed and overnight-fasted mice treated with anti-VEGF-B antibody. The format is in vivo, C57BL/6 mice. The conditions noted are these: fed or fasted state (14 h overnight); 400 μg i.p. twice weekly, 3 injections; vs isotype control. On the procedure: Male C57BL/6 wild-type mice and aged matched (12 weeks) Vegfb^+/− and Vegfb^−/− mice were subjected to 14 hours of overnight fasting. Body weight and blood glucose levels were recorded before and after fasting. Body weight drop was calculated as a percentage of weight loss determined by recording body weight in the fasted and fed state. Glucose measurements were performed using a Bayer Contour Glucose meter on blood from the tail vein. Statistical analyses were performed using one-way ANOVA.
as §1

The target in assay [4] is T1, VEGF-B. Description: Hepatic lipid droplet quantification (adipophilin) during fasting-induced lipolysis. Format: in vivo, C57BL/6 mice. The following applies: vs control treated. As to the method: Male C57BL/6 mice and aged matched (12 weeks) Vegfb^+/− and Vegfb^−/− mice were subjected to 14 hours of overnight fasting. Animals were sacrificed using carbon dioxide anaesthetics and livers and hearts were dissected. For Oil Red 0 (ORO) analysis, liver biopsies were embedded in Tissue-Tek® (Sakura) directly on the mould of the cryostat. Cryo sections (12 μm) were immersed either 5 min (liver) or 8 min (heart) in ORO working solution (2.5 g oil red 0 (Sigma-Aldrich), dissolved in 400 ml 99% isopropanol, further diluted 6:10 in H2O, filtered through a […] filter (Corning). Thereafter the sections were submerged for 3 secs in hematoxylin solution followed by short submerging in LiCO3 (for liver) and rinsed for 10 min under running tap water before they were mounted. Stained sections were examined with bright field microscopy. At least 10 frames per animal within each section were photographed with an Axio Vision microscope (Carl Zeiss) at 20× magnification. The amount of neutral lipids was quantified using Axio Vision Run wizard program for liver or heart ORO staining (pixel^2/μm^2). For measurements of lipid droplets, liver biopsies were fixed in 4% PFA for 24 hours and subsequently processed for paraffin embedding using standard procedures and 4 μm sections were prepared. Antigen retrieval was performed using Antigen retrieval solution Ph6 (Dako #S2367) and heating at 98° C. for 10 min. Sections were incubated at 4° C. overnight with guinea pig anti-adipophilin (Fitzgerald) antibody. […] The amount of lipid droplets was quantified using Axio Vision Run wizard program for hepatic adipophilin+staining (pixel^2/μm^2 or arbitrary units).
C57BL/6 male mice purchased from Janvier labs and injected with 3 consecutive injections intraperitoneally (i.p.) twice weekly with 400 μg of anti-VEGF-B antibody (2H10) or an isotype matched control antibody. […] Body weight and blood glucose levels were determined as described above. […]

The target of assay [5] is T1, VEGF-B. Put plainly: Ex vivo lipolysis rate in visceral epididymal adipose tissue of antibody-treated mice. More on the design: species or system C57BL/6 mice. The conditions noted are these: vs control treated. As to the method: Male C57BL/6 wild-type mice and aged matched Vegfb^−/− mice (12 weeks old) were subjected to 14 hours of overnight fasting. […] FA content was determined from the incubation media using a NEFA kit (Wako chemicals). The total amount of protein was measured by transferring the tissue explants into 1 ml extraction solution (Chloroform/methanol (2:1, v/v), 1% glacial acetic acid) and incubated for 60 min at 37° C. under vigorous shaking. […] Protein content of the adipose tissue explant lysates was determined from the lysed solution using BCA reagent kit (Pierce) and BSA as standard. The rate of lipolysis rate was calculated as the amount of NEFAs/mg protein/hrs. […]
C57BL/6 male mice purchased from Janvier labs and injected with 3 consecutive injections intraperitoneally (i.p.) twice weekly with 400 μg of anti-VEGF-B antibody (2H10) or an isotype matched control antibody. […] Body weight and blood glucose levels were determined as described above.
C57BL/6 male mice were treated with an anti-VEGF-B antibody (2H10) or an isotype matched control antibody as described above. […] Basal and forskolin-stimulated lipolysis was measured as previously described above.

[6] abbreviates: chow-fed mice, vs isotype control.
Where [7] appears, read: fasted mice, between treatment groups.

For `CN(C)C(=O)Nc1cccc(-c2ccc(N(C)C)cc2)c1` [Atglistatin], the Forskolin-stimulated lipolysis rate entry in assay [1] (explants of AdiCre/Vegfb Flox+, WT/WT, WT/Vegfb Flox+ and AdiCre/WT mice) is on record as “inhibited”. Further, the Forskolin-stimulated lipolysis result in assay [1] (explants of anti-VEGF-B and control treated C57BL/6 mice) is recorded as “decreased”; in assay [1] (explants of wild-type and Vegfb−/− mice), “decreased”.

B1: 2H10: anti-VEGF-B antibody comprising a VH of SEQ ID NO: 3 and a VL of SEQ ID NO: 4 (antibody, V domains shown)
VH: VQLQQPGTELVKPGASVKLSCKASGYTFTGFWIHWVKQRPGQGLEWIGHINPGNGGTNYNEKFKRMATLTVDKSSSTAYMQLSSLTSEDSAVYYCARSYSNYVRAMDYWGQGTSVTVSS
VL: IQMTQTTSSLSASLGDRVTISCRASQDISNFLNWYQQKPDGTVKLLIYYTSTLHSGVPSRFSGSGSGTDYSLTISNLEQEDIATYFCQQGKTLPPTFGGGTKLEIK
modifications: amino acid sequence from a VH of antibody 2H10; amino acid sequence from a VL of antibody 2H10
Regarding B1, in assay [2] (setting [6]), the Plasma insulin levels entry was “significant increase”, the “Plasma levels of NEFAs” value was “did not alter”, the “Plasma levels of TAGs” value is reported as “did not alter” and the “Plasma levels of glycerol” value is reported as “did not alter”. Also, in assay [2] (fasted mice (14 h overnight)), the “Plasma levels of NEFAs” value was “not increased” and the “Plasma levels of glycerol” value is “not increased”. For the same molecule, in assay [2] (setting [7]), the “Fasting plasma TAG levels” value is given as “No differences” and the “Fasting plasma insulin levels” value is on record as “No differences”. Moreover, in assay [3], the Blood glucose levels entry is “does not Influence” and the Body weight entry is “does not Influence”. In assay [4] (fasting conditions (fasting-induced lipolysis)), the Hepatic lipid accumulation result is “inhibited”. In addition, in assay [4] (fasting conditions (fasting-induced lipolysis), listed as anti-VEGF-B), the Hepatic lipid accumulation result was “significantly reduced”. Besides, the Hepatic lipid accumulation entry in assay [4] (fed conditions) is on record as “significantly reduced”. The Forskolin-stimulated lipolysis rate entry in assay [5] (10 μM forskolin) was “No effect”. The Basal lipolysis rate entry in assay [5] (adipose tissue of fasted mice) is “significantly reduces”.

Values taken from US20210269517A1, “METHOD OF TREATING WASTING DISORDERS” (CSL Limited, priority 2018, published 2021).
